Experimental data: paper PMC9482650, “Quantitative fragmentomics allow affinity mapping of interactomes” (Nature Communications, 2022)

T1: APBA3_1, O96018
T1 sequence (O96018 389-490, limits assumed, looked up): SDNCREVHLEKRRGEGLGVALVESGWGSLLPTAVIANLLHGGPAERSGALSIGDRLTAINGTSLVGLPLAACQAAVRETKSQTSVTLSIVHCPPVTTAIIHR

T2: ARHGEF11, O15085
T2 sequence (O15085 42-136, limits assumed, looked up): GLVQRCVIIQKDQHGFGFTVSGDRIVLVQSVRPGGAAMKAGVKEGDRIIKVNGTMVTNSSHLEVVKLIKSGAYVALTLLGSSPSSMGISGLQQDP

T3: DFNB31_2, Q9P202
T3 sequence (Q9P202 274-371, limits assumed, looked up): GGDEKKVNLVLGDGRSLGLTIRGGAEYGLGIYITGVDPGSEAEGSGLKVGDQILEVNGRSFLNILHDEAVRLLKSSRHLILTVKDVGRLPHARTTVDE

T4: DFNB31_3, Q9P202
T4 sequence (Q9P202 811-907, limits assumed, looked up): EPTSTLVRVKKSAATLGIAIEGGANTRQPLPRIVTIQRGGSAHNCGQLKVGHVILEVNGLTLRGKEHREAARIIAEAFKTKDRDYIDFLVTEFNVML

T5: HTRA3, P83110
T5 sequence (P83110 354-453, limits assumed, looked up): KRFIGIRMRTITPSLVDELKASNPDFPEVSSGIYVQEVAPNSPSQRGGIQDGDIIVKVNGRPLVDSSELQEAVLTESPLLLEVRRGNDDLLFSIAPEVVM

T6: LNX2_2, Q8N448
T6 sequence (Q8N448 334-432, limits assumed, looked up): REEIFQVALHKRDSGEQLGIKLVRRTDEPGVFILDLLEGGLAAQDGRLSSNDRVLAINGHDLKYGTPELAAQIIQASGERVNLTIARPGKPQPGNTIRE

T7: MPDZ_12, O75970
T7 sequence (O75970 1857-1958, limits assumed, looked up): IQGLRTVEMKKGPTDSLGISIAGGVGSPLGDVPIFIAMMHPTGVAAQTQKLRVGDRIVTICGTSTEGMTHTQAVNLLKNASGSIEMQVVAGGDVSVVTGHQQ

T8: RAPGEF6, Q8TEU7
T8 sequence (Q8TEU7 525-625, limits assumed, looked up): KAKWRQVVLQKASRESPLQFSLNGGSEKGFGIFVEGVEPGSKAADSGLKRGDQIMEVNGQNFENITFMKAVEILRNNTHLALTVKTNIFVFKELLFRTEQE

T9: SNTB1, Q13884
T9 sequence (Q13884 107-205, limits assumed, looked up): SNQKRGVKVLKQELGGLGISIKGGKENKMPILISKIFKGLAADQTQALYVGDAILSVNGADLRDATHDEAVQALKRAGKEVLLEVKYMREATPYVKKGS

T10: SNTG1, Q9NSN8
T10 sequence (Q9NSN8 52-150, limits assumed, looked up): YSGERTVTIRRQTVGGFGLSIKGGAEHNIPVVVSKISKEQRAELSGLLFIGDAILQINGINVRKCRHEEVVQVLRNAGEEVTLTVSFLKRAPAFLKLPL

T11: TJP3_3, O95049
T11 sequence (O95049 375-456, limits assumed, looked up): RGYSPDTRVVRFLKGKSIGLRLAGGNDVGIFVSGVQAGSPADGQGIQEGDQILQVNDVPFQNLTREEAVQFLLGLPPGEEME


Key:
Assay in all cases: holdup assay
Design in all cases: key: below the threshold = too weak to quantify, mostly under pKd 3.1 to 4
Settings in all cases: plain residues with an end cap or a label only (N-terminal biotin on a linker: ado-ado)
APBA3_1, O96018 = target: T1, APBA3_1, O96018
ARHGEF11, O15085 = target: T2, ARHGEF11, O15085
CASK, O14936 = target: CASK, O14936
Sequence of CASK, O14936 (O14936 487-570): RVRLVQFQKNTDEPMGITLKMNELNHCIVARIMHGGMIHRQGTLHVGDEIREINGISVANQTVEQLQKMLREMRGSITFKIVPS

DFNB31_2, Q9P202 = target: T3, DFNB31_2, Q9P202
DFNB31_3, Q9P202 = target: T4, DFNB31_3, Q9P202
DLG1_1, Q12959 = target: DLG1_1, Q12959
DLG1_2, Q12959 = target: DLG1_2, Q12959
GIPC2, Q8TF65 = target: GIPC2, Q8TF65
Sequence of GIPC2, Q8TF65 (Q8TF65 112-203): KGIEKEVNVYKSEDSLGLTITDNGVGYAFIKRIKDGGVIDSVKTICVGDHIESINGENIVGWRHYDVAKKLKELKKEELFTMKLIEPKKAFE

GOPC, Q9HD26 = target: GOPC, Q9HD26
HTRA3, P83110 = target: T5, HTRA3, P83110
IL16_3, Q14005 = target: IL16_3, Q14005
Sequence of IL16_3, Q14005 (Q14005 1107-1207): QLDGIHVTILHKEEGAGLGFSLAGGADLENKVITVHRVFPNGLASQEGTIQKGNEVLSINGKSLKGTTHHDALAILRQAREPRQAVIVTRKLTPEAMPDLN

Inadl_10, Q8NI35 = target: Inadl_10, Q8NI35
Sequence of Inadl_10, Q8NI35 (Q8NI35 1673-1763): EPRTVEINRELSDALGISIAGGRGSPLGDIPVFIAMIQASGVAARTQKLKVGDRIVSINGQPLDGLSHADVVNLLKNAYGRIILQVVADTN

Inadl_4, Q8NI35 = target: Inadl_4, Q8NI35
Sequence of Inadl_4, Q8NI35 (Q8NI35 547-651): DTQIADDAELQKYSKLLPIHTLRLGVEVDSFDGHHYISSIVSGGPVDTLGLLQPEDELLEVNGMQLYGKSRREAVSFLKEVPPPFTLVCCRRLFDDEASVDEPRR

LNX2_2, Q8N448 = target: T6, LNX2_2, Q8N448
MAGI2_6, Q86UL8 = target: MAGI2_6, Q86UL8
Sequence of MAGI2_6, Q86UL8 (Q86UL8 1141-1229): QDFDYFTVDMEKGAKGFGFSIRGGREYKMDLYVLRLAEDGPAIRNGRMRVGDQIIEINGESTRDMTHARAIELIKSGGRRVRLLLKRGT

MPDZ_12, O75970 = target: T7, MPDZ_12, O75970
NHERF4_2, Q86UT5 = target: NHERF4_2, Q86UT5
Sequence of NHERF4_2, Q86UT5 (Q86UT5 220-308): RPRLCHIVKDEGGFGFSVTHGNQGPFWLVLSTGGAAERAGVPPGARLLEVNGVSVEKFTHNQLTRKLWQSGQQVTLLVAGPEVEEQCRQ

NOS1, P29475 = target: NOS1, P29475
Sequence of NOS1, P29475 (P29475 9-101): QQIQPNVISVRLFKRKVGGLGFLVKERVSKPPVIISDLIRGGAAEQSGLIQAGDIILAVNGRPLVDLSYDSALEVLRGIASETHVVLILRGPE

PICK1, Q9NRD5 = target: PICK1, Q9NRD5
Sequence of PICK1, Q9NRD5 (Q9NRD5 17-115): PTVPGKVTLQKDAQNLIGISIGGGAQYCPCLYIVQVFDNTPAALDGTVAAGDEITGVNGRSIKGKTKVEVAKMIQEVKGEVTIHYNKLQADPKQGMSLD

PTPN3, P26045 = target: PTPN3, P26045
Sequence of PTPN3, P26045 (P26045 505-587): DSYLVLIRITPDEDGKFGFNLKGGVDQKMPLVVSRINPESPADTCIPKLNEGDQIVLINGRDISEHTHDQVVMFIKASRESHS

RAPGEF6, Q8TEU7 = target: T8, RAPGEF6, Q8TEU7
SCRIB_1, Q14160 = target: SCRIB_1, Q14160
Sequence of SCRIB_1, Q14160 (Q14160 718-814): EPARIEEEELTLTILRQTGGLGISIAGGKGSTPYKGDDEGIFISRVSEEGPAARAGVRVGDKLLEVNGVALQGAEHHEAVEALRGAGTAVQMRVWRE

SNTB1, Q13884 = target: T9, SNTB1, Q13884
SNTG1, Q9NSN8 = target: T10, SNTG1, Q9NSN8
SNX27, Q96L92 = target: SNX27, Q96L92
TJP1_3, Q07157 = target: TJP1_3, Q07157
Sequence of TJP1_3, Q07157 (Q07157 416-512): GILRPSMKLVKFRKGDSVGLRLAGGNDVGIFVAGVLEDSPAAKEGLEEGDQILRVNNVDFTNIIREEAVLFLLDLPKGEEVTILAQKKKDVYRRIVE

TJP3_3, O95049 = target: T11, TJP3_3, O95049

Binder	pKd (APBA3_1, O96018)	pKd (ARHGEF11, O15085)	pKd (CASK, O14936)	pKd (DFNB31_2, Q9P202)	pKd (DFNB31_3, Q9P202)	pKd (DLG1_1, Q12959)	pKd (DLG1_2, Q12959)	pKd (GIPC2, Q8TF65)	pKd (GOPC, Q9HD26)	pKd (HTRA3, P83110)	pKd (IL16_3, Q14005)	pKd (Inadl_10, Q8NI35)	pKd (Inadl_4, Q8NI35)	pKd (LNX2_2, Q8N448)	pKd (MAGI2_6, Q86UL8)	pKd (MPDZ_12, O75970)	pKd (NHERF4_2, Q86UT5)	pKd (NOS1, P29475)	pKd (PICK1, Q9NRD5)	pKd (PTPN3, P26045)	also measured
TFSRRPKTRV [CD226, Q15762]	below the threshold	4.06	below the threshold	below the threshold	below the threshold	below the threshold	below the threshold	below the threshold	4.56	below the threshold	below the threshold	below the threshold	below the threshold	below the threshold	below the threshold	below the threshold	below the threshold	4.17	below the threshold	below the threshold	pKd (RAPGEF6, Q8TEU7): below the threshold; pKd (SCRIB_1, Q14160): below the threshold; pKd (SNTB1, Q13884): below the threshold; pKd (SNTG1, Q9NSN8): below the threshold; pKd (SNX27, Q96L92): 3.88; pKd (TJP1_3, Q07157): below the threshold; pKd (TJP3_3, O95049): below the threshold
AKADAQESRL [PLCB2, Q00722]	below the threshold	3.66	below the threshold	below the threshold	below the threshold	below the threshold	below the threshold	below the threshold	4.1	below the threshold	below the threshold	below the threshold	below the threshold	below the threshold	below the threshold	below the threshold	below the threshold	below the threshold	below the threshold	4.74	pKd (RAPGEF6, Q8TEU7): below the threshold; pKd (SCRIB_1, Q14160): 4.2; pKd (SNTB1, Q13884): 4.43; pKd (SNTG1, Q9NSN8): below the threshold; pKd (SNX27, Q96L92): 5.21; pKd (TJP1_3, Q07157): below the threshold; pKd (TJP3_3, O95049): below the threshold
THHRKIHTRV [ZNF599, Q96NL3]	below the threshold	4.25	below the threshold	below the threshold	below the threshold	5.07	5.53	3.56	4.67	below the threshold	below the threshold	below the threshold	3.57	3.82	below the threshold	below the threshold	below the threshold	4.02	below the threshold	below the threshold	pKd (RAPGEF6, Q8TEU7): below the threshold; pKd (SCRIB_1, Q14160): 3.98; pKd (SNTB1, Q13884): 4.36; pKd (SNTG1, Q9NSN8): 3.61; pKd (SNX27, Q96L92): 4.31; pKd (TJP1_3, Q07157): below the threshold; pKd (TJP3_3, O95049): below the threshold
VISSDDLTEL [CAPN6, Q9Y6Q1]	below the threshold	4.45	below the threshold	below the threshold	4	below the threshold	below the threshold	below the threshold	below the threshold	below the threshold	below the threshold	below the threshold	below the threshold	below the threshold	3.59	below the threshold	below the threshold	below the threshold	below the threshold	4.12	pKd (RAPGEF6, Q8TEU7): below the threshold; pKd (SCRIB_1, Q14160): 3.6; pKd (SNTB1, Q13884): below the threshold; pKd (SNTG1, Q9NSN8): below the threshold; pKd (SNX27, Q96L92): 4.17; pKd (TJP1_3, Q07157): below the threshold; pKd (TJP3_3, O95049): below the threshold
RGKNRRQSIF [CDK18, Q07002]	below the threshold	below the threshold	below the threshold	below the threshold	3.65	below the threshold	below the threshold	below the threshold	below the threshold	below the threshold	below the threshold	below the threshold	below the threshold	3.58	below the threshold	3.58	below the threshold	3.75	4.17	3.77	pKd (RAPGEF6, Q8TEU7): 3.67; pKd (SCRIB_1, Q14160): below the threshold; pKd (SNTB1, Q13884): below the threshold; pKd (SNTG1, Q9NSN8): below the threshold; pKd (SNX27, Q96L92): below the threshold; pKd (TJP1_3, Q07157): below the threshold; pKd (TJP3_3, O95049): below the threshold
